Results: the nanobody polyreactivity screen of Harvey et al. (2022)

Experiment: yeast display, Sf9 membrane polyspecificity reagent, FACS + sequencing; frameworks hold sequencing errors
In short: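 After 36–48 hours of galactose induction, yeast (Saccharomyces cerevisiae BJ5465) displaying a synthetic nanobody library were stained at 4 °C for 1 hour with 10% biotinylated, detergent-solubilized Sf9 membrane reagent. Streptavidin microbeads enriched the stained cells before FACS sorting into low and high (top ~1%) gates on anti-HA and streptavidin fluorescence. Each clone's polyreactivity label reflects its gate of origin.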

| Sequence | polyreactivity (PSR sort gate) |
| --- | --- |
| QVQLVESGGGLVQAGGSLRLSCAASGRIFPINVMGWYRQAPGKERELVAAISGRGGSTYYADSVKGRFTISRDNAKNTVYLQMNSLKPEDTAVYYCNAVRVSIPYIYTMDYWGQGTQVTVSS | high polyreactivity |
| QVQLVESGGGLVQAGGSLRLSCAASGSILDRYVMGWYRQAPGNGRELVSAITWSGSRTYYADSVKGRFTISRDNAKNTVYLQMNSLKPEDTAVYYCAKVIRRSSTLGNHYYWGQGTQVTVSS | high polyreactivity |
| QVQLVESGGGLVQAGGSLRLSCAASGRIFTAYYAMGWYRQEPGKESELVASISSSGTSTYADSVKGRFTISRDNAKNSVYLQMISLKPEDTAVYYCATRKLRTRRYDYGYWGQGTQVTVSS | low polyreactivity |
| QVQLVESGGGLVQAGGSLRLSCAASGSTFRYNVMGWYRQAPGKERELVATISYSGGSTNYADSVKGRFTISRDNAKNSVYLEIKSLKPVDTAVYYCAARYLYPFYGYWWYDYWGQGTQVTVSS | high polyreactivity |
| QVQLVESGGGLVQAGGSLRLSCAASGRIFRYYAMGWYRQAPGKERELVAAISGGRTYYADSVKGRFTISRDNAKNTVYLQMNSLKPEDTAVYYCNAGGIVWTGYWYDYDYWGQGTQVTVSS | high polyreactivity |
| QVQLVESGGGLVQAGGSLRLSCAASGRTFYRYAMGWYRQAPGKERELVAAITWSGGSTYYADSVKGRFTTSRDNAKNTVYFQMNSLKPEDTAVYYCARRLYPYRPTAYDYWGQGTQVTVSS | low polyreactivity |
| QVQIVESGGGLVQAGGSLRLSCAASGSTFEVNAMGWYRQAPGKERELVAVITSGGSTNYADSVKGPFTISRDNAKNTVYLQMNSLKPEDTAVYYCAKDSRTLEDYWGQGTQVTVSS | low polyreactivity |
| QVQLVESGGGLVQAGGILRLSCAASGNAMGWYRQAPGKERELVATINRSGGRTYYADSVKGRFTISRDNAKNTVYLQMNSLKPEDTAVYYCATEGRWPNASYGDYDYWGQGTQVSVSS | low polyreactivity |
| QVQLVESGGGLLQAGGSLRLSCAASGFTFYPNAMGWYRQAPGKERELVAAISRSGSSTYYADSVKGRFTISRDNAKNTVYLQMNSLKPEDTAVYYCNRYGRQYDFYYWGQGTQVTVSS | high polyreactivity |
| QDPLVESGGGLVQAGGSLRLSCAASGRLFYRNPMGWYRQAPGKERELVAAISSSGGGTYADSVKGRFTISRDNAKNTVYLQMNSLKPEDTAVYYCAAGPFSYSHYGRKFYYWGQGTQVTVSS | high polyreactivity |
| QVQLVESGGGLVQAGGSLRLSCAASGSILFYNAMGWYRQAPGKERELVAAISSGGSTYYADSVKGRFTISRDNAKNTVYLQMNSLKPEDTAVYNCAARRRYSSVYYYYTTRRGYWGQGTQVTVSS | high polyreactivity |
| QVQLVESGGGLVQAGGSLRLSCAASGLIFVHYDMGWYRQAPGKERELVAAISAGGGSTYYADSVKGRFTISRYNSKNTVYLQMNSLLPEDTAVYYCIARVVNYFRPRTGAREYDFWGQGTQGTVSS | high polyreactivity |
| HDQLVESGGGFVQAGGSLRLICAASGSTFIGYAMGWYRQAPGKERELVADISWSGGRTYYADSVKGRFTISRDNEKNTVYLQMNSLKPEDTAVYYCAARGSGHTRSYYWGQGTQVTVSS | high polyreactivity |
| QVQLVESGGGLVQAGGSLRLSCAASGRIFKYNAMGWYRQAPGKERELVAAISGRGVSTYYADSVKGRFTISRDNAKNPVYLQMNSLKPEDTAVYYCAAETVHGSADFDDWGQGTQVTVSS | low polyreactivity |
| QVQIVESGGGLVQEGGSLRISCAASGIIFRRYAMGWYRQAPGKERELVATITRSGSTNYAESVKGRFTISRDNAKNSVYLQMNSLKPEDTAVYYCNADDIRGGVGYDYWGQGTQVTVSS | high polyreactivity |
| QVQLVESGGGLVQAGGSLRLSCAASGRIFATNAMGWYRQAPGKERELVATITRSAGRTYYADSVKGRFTISRDNEKNTVYLQMNILKPDVTAVYYCAADGYSTAVDDTVRYIVEYEFWGQGTQVTVSS | low polyreactivity |

| Sequence | polyreactivity (PSR sort gate) |
| --- | --- |
| QFQLVESGGGLVQAGGSLRLSCAASGRIFHSNAMGWYRQAPGKERELVAAITWSTGRTYYADSVKGRFTISRDNAKNTVYLQMNSLKPEDTAVYYCFRFSYYTGDYWGQGTQVTVSS | high polyreactivity |
| QVQLVESGGGLVQAGGSLRLSCAASGFTLSNNAMGWYRQAPGKERELVAGLTSGGDSTNYADSVKGRFTISRDNAKNTVYLQMNSLKREDTAVYDCAAQGGTNTPGVVESDYWGQGTQVTVSS | low polyreactivity |
| QVQLVESGGGLVQAGGSLRLSCAASGSTLSQNAMGWYRQAPGKEREFVADISGSGDSTYYADSVKGRFTISRDNAKNTVYLQMNSLKPEDTAVYYCAARSLVQDHAYGYNYWGQGTQVTVSS | low polyreactivity |
| QVQLVESGGGLVQAGGSLRLSCAASGSTFYGNAMGWYRQAPGKERELVAAITGDGGSTYYADSVKGRFTISRDNAKNTVYLQMNSLKPEDTAVYYCAVDVIVLGQWPGQLDEFDYWGQGTQVTVSS | low polyreactivity |
| QVQLVESGGGLVQAGGSLRLSCAASGSTFGHYGMGWYRQAPGKERELVAAISYSGGSTSYADSVKGRFTISRDNAKNTVYLQMNSLKPEDTAVYYCATVRKRRYDYWGQGTQVTVSS | low polyreactivity |
| QVQLVESRGGLVQAGGSLRLSCAASRFYTMGWYRQAPGKERELVAAISWSGGDTYYADSVKGRFTISRDNAKNTVYLQMNSLKPDDTAVYYCAKKTIGSYVHEPYYYWGQGTQVTVSS | low polyreactivity |
| QVQLVESGGGLVQAGGSLRLSCAPSGSIFWYYCKGWYRQAPGKERELVAAISSGGSTNYADSVKGRFAISRDNAKNTVYLQMNSLKAEDTAVYYCAVRFTFPRYDYWGQGTQVTVSS | high polyreactivity |
| QVQLVESGGGLVQAGGSLRLSCDASGGPFYLNAMGWYRPAPGTERELVAGITWGGGRTYYADSVKGLFTISRDNAKNTVYLQMNSLKPEDTAVYYCAAGAWRGPYSGYYYWGQGTQVTVSS | low polyreactivity |
| QVQLVESGGGLVQAGGSLRLSCAASGSIFVIYAMGWYRQAPGKERELVAAISWNGGSTFYADSVKGRFTISRDNAKNTVYLQMNSLKPDDTAVYDCNTVASYYRWKSYYYWGQGTQVTVSS | high polyreactivity |
| QVQLVESGGGLVQAGGTLLLSGAASGSIFGYNAMGWYRQAPGKERELVAAIRSSDSRTHYADSVKGRFRISRDNAKNTVYLQMNSLKPEDTAVYYCAAVKRRPGHYLYDYWGQGTQVTVSS | low polyreactivity |
| HVQLVESGGGLFQAGGRLRVSCAASGNTIWGNAMGGSRQAPGKEREVVAAITGGGDTNYADSVKGRFTISRDNAKNTVYLQMNSLKPEDTAVYYCAADSSEWLLKDDYWGQGTQVTVSS | low polyreactivity |
| QVQLVESGGGLVQAGGSLRLSCAASGRTFSLNAMGWYRPAPGKEREFVAAISSTGGSTYYADSVKGRFTISRDNAKNTVYLQMNSLKPEDTAVYYCAKRSVYRTAQGRYSVAYDYWGQGTQVTVSS | high polyreactivity |
| QVQLQESGGGLVQAGGSQRLSCAASGSISILQSRGCYRQAPGKERELVAGINWGATTYYADSVKGRLTTSRDYAKNTVYLQMNSLKPEDTAVYYCAVPTYYTYPLLYWGQGTQVTVSS | low polyreactivity |
| QVQLVESGGGLVQAGGSLRLSCAASGRTFNRYAMGWYRQAPGKERELVAAISYGGGRTYYADSVKGRFTISRDNAKNTVYLQMYSLKPEDTAVYYCNAVFGYQSPGGYDYWGQGTQVTVSS | high polyreactivity |
| QVQLVESGGGLVQAGGSLRLSCAASGSIFEYNDMGWYRQAPGKEREMVSAISWNGGSTYYADSVKGRFTISRDNAKNTVYLQMNSLKPEDTAVYYCAADGDPLWVASEYDSWGQGTQVTVSS | low polyreactivity |
